Among the data in patent US7393946 are activity (fold activation) values, retold here.

This data set concerns ORCA-3 (Catharanthus roseus). In words: cell_activity. As to conditions: GUS/CAT, C. roseus cells.
Sequence of ORCA-3 (Catharanthus roseus) (chain, as listed by the source): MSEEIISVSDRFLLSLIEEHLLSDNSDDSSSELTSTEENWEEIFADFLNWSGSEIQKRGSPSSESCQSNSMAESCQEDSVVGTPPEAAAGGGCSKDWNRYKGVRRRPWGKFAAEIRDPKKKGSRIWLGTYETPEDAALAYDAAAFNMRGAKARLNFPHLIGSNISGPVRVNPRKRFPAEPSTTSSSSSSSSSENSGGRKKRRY

Str1 NH promoter (-202 to -1) returned an activity (fold activation) of 5.
